# Results taken from publication PMC9440762, “Anti-Stokes fluorescence excitation reveals conformational mobility of the C-phycocyanin chromophores” (Structural Dynamics, 2022).
# T1: C-phycocyanin β subunit from Arthrospira platensis (Arthrospira platensis (Spirulina), UniProt P72508 1-172, phycocyanobilin covalently bound to the cysteines at positions 82 and 153)
# T1 construct: C-phycocyanin β subunit, Arthrospira platensis (Spirulina); also called β C-PC chain
# T1 sequence (looked up): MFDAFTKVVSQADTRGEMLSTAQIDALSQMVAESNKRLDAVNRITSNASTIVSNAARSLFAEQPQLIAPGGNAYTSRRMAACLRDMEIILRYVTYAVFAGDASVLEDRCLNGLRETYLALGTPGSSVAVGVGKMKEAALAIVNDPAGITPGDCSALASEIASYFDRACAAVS
# Legend:
# [1] = biological target: the molecule itself; experiment: SAXS; C-PC in solution at 150 mM NaCl; fits with trimer and hexamer models, MW estimate, ab initio shape by GASBOR; also at 4, 6 and 8 M urea (decrease in the oligomeric state, partial dissociation of trimers)
# [2] = biological target: T1, C-phycocyanin β subunit from …; experiment: SEC; preparative Superdex 200 26/600, 20 mM Tris-HCl pH 7.6, 150 mM NaCl; fractions of the main peak analysed by SDS-PAGE; settings: both partners purified
binding result [2],Binder,stoichiometry N [1]
,"C-phycocyanin αβ monomer (heterodimer of the α and β subunits) from Arthrospira platensis (complex, phycocyanobilin covalently bound to the cysteine at position 84 | phycocyanobilin covalently bound to the cysteines at positions 82 and 153, C-phycocyanin α subunit, Arthrospira platensis (Spirulina); band of apparent MW 16 or 18 kDa on SDS-PAGE; C-phycocyanin β subunit, Arthrospira platensis (Spirulina); The unit that associates with itself into the (αβ)3 trimer; Linker polypeptides are absent from the preparation; also called C-PC; PC) chain 1: not shown chain 2: MFDAFTKVVSQADTRGEMLSTAQIDALSQMVAESNKRLDAVNRITSNASTIVSNAARSLFAEQPQLIAPGGNAYTSRRMAACLRDMEIILRYVTYAVFAGDASVLEDRCLNGLRETYLALGTPGSSVAVGVGKMKEAALAIVNDPAGITPGDCSALASEIASYFDRACAAVS",3
binds,"C-phycocyanin α subunit from Arthrospira platensis (natural protein, phycocyanobilin covalently bound to the cysteine at position 84, C-phycocyanin α subunit, Arthrospira platensis (Spirulina); also called α C-PC chain) not shown",
